Publication PMC9482650, “Quantitative fragmentomics allow affinity mapping of interactomes” (Nature Communications, 2022)

T1: LIN7B, Q9HAP6
T1 sequence (Q9HAP6 88-185, limits assumed, looked up): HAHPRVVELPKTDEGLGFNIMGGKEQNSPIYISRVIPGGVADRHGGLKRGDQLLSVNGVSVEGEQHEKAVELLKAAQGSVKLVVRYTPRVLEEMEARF

T2: HTRA3, P83110
T2 sequence (P83110 354-453, limits assumed, looked up): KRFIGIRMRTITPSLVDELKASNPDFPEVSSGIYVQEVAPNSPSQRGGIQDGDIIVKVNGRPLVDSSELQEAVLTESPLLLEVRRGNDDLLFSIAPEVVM

T3: GRIP1_7, Q9Y3R0
T3 sequence (Q9Y3R0 999-1096, limits assumed, looked up): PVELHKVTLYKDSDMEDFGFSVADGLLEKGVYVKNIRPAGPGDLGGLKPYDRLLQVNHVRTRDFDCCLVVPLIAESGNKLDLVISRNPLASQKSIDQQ

T4: RADIL, Q96JH8
T4 sequence (Q96JH8 971-1071, limits assumed, looked up): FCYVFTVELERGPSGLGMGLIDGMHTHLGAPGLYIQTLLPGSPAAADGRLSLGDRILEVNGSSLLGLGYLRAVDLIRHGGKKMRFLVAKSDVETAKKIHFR

T5: TJP3_3, O95049
T5 sequence (O95049 375-456, limits assumed, looked up): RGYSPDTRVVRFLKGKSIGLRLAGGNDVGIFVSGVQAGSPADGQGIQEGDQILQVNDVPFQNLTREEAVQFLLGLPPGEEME

T6: SIPA1L2, Q9P2F8
T6 sequence (Q9P2F8 945-1036, limits assumed, looked up): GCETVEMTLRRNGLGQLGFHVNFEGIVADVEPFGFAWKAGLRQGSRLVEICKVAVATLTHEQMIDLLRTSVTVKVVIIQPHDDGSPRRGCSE

T7: TX1BP3, O14907
T7 sequence (O14907 10-122, limits assumed, looked up): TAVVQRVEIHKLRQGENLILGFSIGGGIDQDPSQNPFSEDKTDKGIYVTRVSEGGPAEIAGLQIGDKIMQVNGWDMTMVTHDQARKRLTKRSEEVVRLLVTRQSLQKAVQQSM

T8: SNTB1, Q13884
T8 sequence (Q13884 107-205, limits assumed, looked up): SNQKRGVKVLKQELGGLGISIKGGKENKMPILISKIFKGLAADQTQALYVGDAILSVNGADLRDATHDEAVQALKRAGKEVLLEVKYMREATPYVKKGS

T9: HTRA4, P83105
T9 sequence (P83105 378-476, limits assumed, looked up): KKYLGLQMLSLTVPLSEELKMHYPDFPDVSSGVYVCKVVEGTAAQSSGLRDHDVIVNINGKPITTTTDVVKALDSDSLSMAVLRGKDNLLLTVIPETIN

T10: NHERF3_4, Q5T2W1
T10 sequence (Q5T2W1 373-468, limits assumed, looked up): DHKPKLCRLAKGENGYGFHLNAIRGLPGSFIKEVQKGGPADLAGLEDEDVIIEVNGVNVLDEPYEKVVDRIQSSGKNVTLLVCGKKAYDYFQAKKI

T11: ARHGEF11, O15085
T11 sequence (O15085 42-136, limits assumed, looked up): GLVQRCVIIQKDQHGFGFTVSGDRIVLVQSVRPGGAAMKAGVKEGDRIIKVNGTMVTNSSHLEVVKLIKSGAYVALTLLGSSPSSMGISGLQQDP

T12: RAPGEF6, Q8TEU7
T12 sequence (Q8TEU7 525-625, limits assumed, looked up): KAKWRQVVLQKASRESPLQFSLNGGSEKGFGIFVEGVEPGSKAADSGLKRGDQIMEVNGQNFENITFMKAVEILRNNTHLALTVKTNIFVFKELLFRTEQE

T13: SNTA1, Q13424
T13 sequence (Q13424 82-180, limits assumed, looked up): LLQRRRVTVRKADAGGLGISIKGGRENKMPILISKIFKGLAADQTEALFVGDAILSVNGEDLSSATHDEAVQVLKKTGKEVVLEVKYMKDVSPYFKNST

B1: VANGL1, Q8TAA9 (peptide)
chain: VLRLQSETSV
B2: KCNT2, Q6UVM3 (peptide)
chain: GQDSREETQL

Biological target: T1, LIN7B, Q9HAP6
Test: holdup assay
Set-up: key: below the threshold = too weak to quantify, mostly under pKd 3.1 to 4
Conditions: plain residues with an end cap or a label only (N-terminal biotin on a linker: ttds)

Binder | pKd
B1 | 3.67
B2 | 3.66

Biological target: DLG2_2, Q15700
Test: holdup assay
Set-up: key: below the threshold = too weak to quantify, mostly under pKd 3.1 to 4
Conditions: plain residues with an end cap or a label only (N-terminal biotin on a linker: ttds)

Chain of DLG2_2, Q15700 (Q15700 189-283): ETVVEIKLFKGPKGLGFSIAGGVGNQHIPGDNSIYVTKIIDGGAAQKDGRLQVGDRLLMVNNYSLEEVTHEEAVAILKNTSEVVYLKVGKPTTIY

Binder | pKd
B1 | 4.58
B2 | 4.47

Biological target: AHNAK1, Q09666
Test: holdup assay
Set-up: key: below the threshold = too weak to quantify, mostly under pKd 3.1 to 4
Conditions: plain residues with an end cap or a label only (N-terminal biotin on a linker: ttds)

Chain of AHNAK1, Q09666 (Q09666 4-100): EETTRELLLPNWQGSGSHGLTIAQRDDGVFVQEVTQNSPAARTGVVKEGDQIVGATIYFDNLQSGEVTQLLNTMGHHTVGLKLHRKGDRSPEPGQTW

Binder | pKd
B1 | below the threshold
B2 | below the threshold

Biological target: T2, HTRA3, P83110
Test: holdup assay
Set-up: key: below the threshold = too weak to quantify, mostly under pKd 3.1 to 4
Conditions: plain residues with an end cap or a label only (N-terminal biotin on a linker: ttds)

Binder | pKd
B1 | below the threshold
B2 | below the threshold

Biological target: T3, GRIP1_7, Q9Y3R0
Test: holdup assay
Set-up: key: below the threshold = too weak to quantify, mostly under pKd 3.1 to 4
Conditions: plain residues with an end cap or a label only (N-terminal biotin on a linker: ttds)

Binder | pKd
B1 | 3.73
B2 | below the threshold

Biological target: T4, RADIL, Q96JH8
Test: holdup assay
Set-up: key: below the threshold = too weak to quantify, mostly under pKd 3.1 to 4
Conditions: plain residues with an end cap or a label only (N-terminal biotin on a linker: ttds)

Binder | pKd
B1 | below the threshold
B2 | below the threshold

Biological target: T5, TJP3_3, O95049
Test: holdup assay
Set-up: key: below the threshold = too weak to quantify, mostly under pKd 3.1 to 4
Conditions: plain residues with an end cap or a label only (N-terminal biotin on a linker: ttds)

Binder | pKd
B1 | below the threshold
B2 | below the threshold

Biological target: LDB3, O75112
Test: holdup assay
Set-up: key: below the threshold = too weak to quantify, mostly under pKd 3.1 to 4
Conditions: plain residues with an end cap or a label only (N-terminal biotin on a linker: ttds)

Chain of LDB3, O75112 (O75112 1-94): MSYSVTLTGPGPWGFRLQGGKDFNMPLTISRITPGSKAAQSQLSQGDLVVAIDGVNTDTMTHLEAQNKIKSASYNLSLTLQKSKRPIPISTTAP

Binder | pKd
B1 | below the threshold
B2 | below the threshold

Biological target: MAGI2_4, Q86UL8
Test: holdup assay
Set-up: key: below the threshold = too weak to quantify, mostly under pKd 3.1 to 4
Conditions: plain residues with an end cap or a label only (N-terminal biotin on a linker: ttds)

Chain of MAGI2_4, Q86UL8 (Q86UL8 772-865): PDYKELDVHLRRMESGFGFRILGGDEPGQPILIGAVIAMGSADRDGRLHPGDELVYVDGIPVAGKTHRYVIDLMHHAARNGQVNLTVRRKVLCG

Binder | pKd
B1 | 4.42
B2 | below the threshold

Biological target: NHERF4_2, Q86UT5
Test: holdup assay
Set-up: key: below the threshold = too weak to quantify, mostly under pKd 3.1 to 4
Conditions: plain residues with an end cap or a label only (N-terminal biotin on a linker: ttds)

Chain of NHERF4_2, Q86UT5 (Q86UT5 220-308): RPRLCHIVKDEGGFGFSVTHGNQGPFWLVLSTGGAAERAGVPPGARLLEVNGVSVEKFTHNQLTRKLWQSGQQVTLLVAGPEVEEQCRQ

Binder | pKd
B1 | below the threshold
B2 | below the threshold

Biological target: MAGI1_2, Q96QZ7
Test: holdup assay
Set-up: key: below the threshold = too weak to quantify, mostly under pKd 3.1 to 4
Conditions: plain residues with an end cap or a label only (N-terminal biotin on a linker: ttds)

Chain of MAGI1_2, Q96QZ7 (Q96QZ7 456-580): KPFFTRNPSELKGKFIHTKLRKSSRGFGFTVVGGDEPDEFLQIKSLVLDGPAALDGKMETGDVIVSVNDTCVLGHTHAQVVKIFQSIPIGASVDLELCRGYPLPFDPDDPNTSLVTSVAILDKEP

Binder | pKd
B1 | 4.37
B2 | 4.5

Biological target: T6, SIPA1L2, Q9P2F8
Test: holdup assay
Set-up: key: below the threshold = too weak to quantify, mostly under pKd 3.1 to 4
Conditions: plain residues with an end cap or a label only (N-terminal biotin on a linker: ttds)

Binder | pKd
B1 | below the threshold
B2 | below the threshold

Biological target: T7, TX1BP3, O14907
Test: holdup assay
Set-up: key: below the threshold = too weak to quantify, mostly under pKd 3.1 to 4
Conditions: plain residues with an end cap or a label only (N-terminal biotin on a linker: ttds)

Binder | pKd
B1 | 4.21
B2 | 3.83

Biological target: T8, SNTB1, Q13884
Test: holdup assay
Set-up: key: below the threshold = too weak to quantify, mostly under pKd 3.1 to 4
Conditions: plain residues with an end cap or a label only (N-terminal biotin on a linker: ttds)

Binder | pKd
B1 | 4.57
B2 | 4.49

Biological target: DLG5_1, Q8TDM6
Test: holdup assay
Set-up: key: below the threshold = too weak to quantify, mostly under pKd 3.1 to 4
Conditions: plain residues with an end cap or a label only (N-terminal biotin on a linker: ttds)

Chain of DLG5_1, Q8TDM6 (Q8TDM6 617-713): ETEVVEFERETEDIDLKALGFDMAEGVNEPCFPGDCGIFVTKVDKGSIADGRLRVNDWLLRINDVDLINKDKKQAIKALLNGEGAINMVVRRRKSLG

Binder | pKd
B1 | below the threshold
B2 | below the threshold

Biological target: Inadl_6, Q8NI35
Test: holdup assay
Set-up: key: below the threshold = too weak to quantify, mostly under pKd 3.1 to 4
Conditions: plain residues with an end cap or a label only (N-terminal biotin on a linker: ttds)

Chain of Inadl_6, Q8NI35 (Q8NI35 1058-1167): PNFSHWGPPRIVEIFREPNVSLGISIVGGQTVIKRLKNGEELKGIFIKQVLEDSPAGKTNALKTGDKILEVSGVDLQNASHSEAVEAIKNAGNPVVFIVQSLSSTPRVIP

Binder | pKd
B1 | below the threshold
B2 | 4.19

Biological target: T9, HTRA4, P83105
Test: holdup assay
Set-up: key: below the threshold = too weak to quantify, mostly under pKd 3.1 to 4
Conditions: plain residues with an end cap or a label only (N-terminal biotin on a linker: ttds)

Binder | pKd
B1 | below the threshold
B2 | below the threshold

Biological target: GRID2IP_2, A4D2P6
Test: holdup assay
Set-up: key: below the threshold = too weak to quantify, mostly under pKd 3.1 to 4
Conditions: plain residues with an end cap or a label only (N-terminal biotin on a linker: ttds)

Chain of GRID2IP_2, A4D2P6 (A4D2P6 272-370): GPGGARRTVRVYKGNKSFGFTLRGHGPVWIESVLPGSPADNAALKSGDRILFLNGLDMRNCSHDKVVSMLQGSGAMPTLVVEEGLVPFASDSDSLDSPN

Binder | pKd
B1 | below the threshold
B2 | 4.52

Biological target: TJP1_3, Q07157
Test: holdup assay
Set-up: key: below the threshold = too weak to quantify, mostly under pKd 3.1 to 4
Conditions: plain residues with an end cap or a label only (N-terminal biotin on a linker: ttds)

Chain of TJP1_3, Q07157 (Q07157 416-512): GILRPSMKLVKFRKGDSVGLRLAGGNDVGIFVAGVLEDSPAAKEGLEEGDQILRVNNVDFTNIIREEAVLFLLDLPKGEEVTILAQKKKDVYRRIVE

Binder | pKd
B1 | below the threshold
B2 | below the threshold

Biological target: T10, NHERF3_4, Q5T2W1
Test: holdup assay
Set-up: key: below the threshold = too weak to quantify, mostly under pKd 3.1 to 4
Conditions: plain residues with an end cap or a label only (N-terminal biotin on a linker: ttds)

Binder | pKd
B1 | below the threshold
B2 | below the threshold

Biological target: T11, ARHGEF11, O15085
Test: holdup assay
Set-up: key: below the threshold = too weak to quantify, mostly under pKd 3.1 to 4
Conditions: plain residues with an end cap or a label only (N-terminal biotin on a linker: ttds)

Binder | pKd
B1 | below the threshold
B2 | 4.44

Biological target: T12, RAPGEF6, Q8TEU7
Test: holdup assay
Set-up: key: below the threshold = too weak to quantify, mostly under pKd 3.1 to 4
Conditions: plain residues with an end cap or a label only (N-terminal biotin on a linker: ttds)

Binder | pKd
B1 | below the threshold
B2 | below the threshold

Biological target: T13, SNTA1, Q13424
Test: holdup assay
Set-up: key: below the threshold = too weak to quantify, mostly under pKd 3.1 to 4
Conditions: plain residues with an end cap or a label only (N-terminal biotin on a linker: ttds)

Binder | pKd
B1 | 4.52
B2 | 4.06

Biological target: DLG1_1, Q12959
Test: holdup assay
Set-up: key: below the threshold = too weak to quantify, mostly under pKd 3.1 to 4
Conditions: plain residues with an end cap or a label only (N-terminal biotin on a linker: ttds)

Binder | pKd
B1 | 4.45
B2 | below the threshold

Biological target: DLG4_3, P78352
Test: holdup assay
Set-up: key: below the threshold = too weak to quantify, mostly under pKd 3.1 to 4
Conditions: plain residues with an end cap or a label only (N-terminal biotin on a linker: ttds)

Chain of DLG4_3, P78352 (P78352 306-403): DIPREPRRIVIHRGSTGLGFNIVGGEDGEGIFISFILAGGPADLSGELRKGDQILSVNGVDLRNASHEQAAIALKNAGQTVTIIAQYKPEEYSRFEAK

Binder | pKd
B1 | 4.51
B2 | below the threshold
